Experimental findings from article PMC10115800, “Two assembly modes for SIN3 histone deacetylase complexes” (Cell Discovery, 2023) are described below.

B2: WD40 domain-containing protein Prw1 (natural protein, S. pombe, UniProt O14021 1-431, looked up)
chain: MAVSAVPHPSKQAQASEEGINQEKCINEEYKIWKKNSPFLYDLIITRALEWPCMSLQWYPEQQIFAEHGYTEQKMFLGVRADVGKYLLAVASIQLPYLNQTVPPTTMEGASAGDESSLRVNISNLYSHPESVCSAKLMPQDDSCVATVGNYHNDVLVFDKESFESYSSASESPLKPKYRLTKHTQPCTSVCWNFLSKGTLVSGSQDATLSCWDLNAYNESDSASVLKVHISSHEKQVSDVRFHYKHQDLLASVSYDQYLHVHDIRRPDASTKPARSVHAHSGPIHSVAFNPHNDFILATCSTDKTIALWDLRNLNQRLHTLEGHEDIVTKISFSPHEEPILASTSADRRTLVWDLSRIGEDQPAEEAQDGPPELLFMHGGHTSCTIDMDWCPNYNWTMATAAEDNILQIWTPSRSIWGNEQLEEDATAYLS
notes: Prw1 of S. pombe, homolog of S. cerevisiae Ume1 and human RBBP4/7; N-terminal NEE box and C-terminal WD40 domain; two copies in SIN3L (Prw1, Prw1’), one in SIN3S; Endogenous protein; source: endogenous, S. pombe; co-purified with Pst3-3×Flag or Pst2-3×Flag (ANTI-FLAG M2 resin, glycerol gradient)

What all share (details): both partners purified
Experiment [1] deals with T1, Pst3 with C-terminal 3× Flag-tag (S. pombe, UniProt O74755 1-1154).
T1 construct: Pst3, Sin3 homolog of S. pombe, subunit of the SIN3L complex; PAH3, HID and HCR are resolved in the model; Endogenous protein; also called Pst3-Flag; Sin3 isoform Pst3; source: endogenous locus tagged, S. pombe; purified (ANTI-FLAG M2 resin, glycerol gradient); not shown: 3× Flag, C-terminal, kept
T1 sequence (looked up): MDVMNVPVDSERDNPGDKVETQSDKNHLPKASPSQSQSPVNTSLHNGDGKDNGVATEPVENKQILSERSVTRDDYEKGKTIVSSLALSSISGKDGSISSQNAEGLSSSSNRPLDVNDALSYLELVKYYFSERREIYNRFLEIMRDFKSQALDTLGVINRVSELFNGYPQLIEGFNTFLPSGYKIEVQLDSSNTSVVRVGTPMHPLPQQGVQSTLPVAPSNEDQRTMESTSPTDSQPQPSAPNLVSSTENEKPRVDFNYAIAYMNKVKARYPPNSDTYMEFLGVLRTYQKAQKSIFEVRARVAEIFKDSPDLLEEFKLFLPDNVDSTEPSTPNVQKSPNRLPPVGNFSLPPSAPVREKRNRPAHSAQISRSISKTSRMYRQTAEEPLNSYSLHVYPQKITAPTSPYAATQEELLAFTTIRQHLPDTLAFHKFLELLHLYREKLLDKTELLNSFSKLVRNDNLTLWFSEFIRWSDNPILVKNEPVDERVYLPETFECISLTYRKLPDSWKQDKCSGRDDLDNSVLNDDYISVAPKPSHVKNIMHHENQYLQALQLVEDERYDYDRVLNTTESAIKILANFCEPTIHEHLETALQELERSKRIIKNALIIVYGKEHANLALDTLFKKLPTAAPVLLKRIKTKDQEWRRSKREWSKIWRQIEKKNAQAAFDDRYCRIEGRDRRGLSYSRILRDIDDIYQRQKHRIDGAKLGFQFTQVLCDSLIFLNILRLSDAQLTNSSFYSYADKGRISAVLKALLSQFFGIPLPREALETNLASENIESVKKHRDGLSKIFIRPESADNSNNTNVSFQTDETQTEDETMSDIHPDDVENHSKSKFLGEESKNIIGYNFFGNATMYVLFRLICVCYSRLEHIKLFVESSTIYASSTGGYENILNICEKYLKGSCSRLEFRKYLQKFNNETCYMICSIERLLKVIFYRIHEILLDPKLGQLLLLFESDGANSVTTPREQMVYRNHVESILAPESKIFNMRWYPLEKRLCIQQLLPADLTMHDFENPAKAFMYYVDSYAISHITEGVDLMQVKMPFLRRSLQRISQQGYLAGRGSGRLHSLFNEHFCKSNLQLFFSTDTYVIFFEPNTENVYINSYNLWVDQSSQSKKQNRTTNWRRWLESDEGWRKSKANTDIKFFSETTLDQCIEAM
The experiment can be described thus: cryo-EM structure; endogenous SIN3L complex purified from the Pst3-3×Flag S. pombe strain, cross-linked with 1 mM BS3; 20 mM HEPES pH 7.4, 50 mM NaCl, 2 mM DTT; 3.2 Å.

Experiment [2] has as its target B2. Described as above.
A further experiment concerns the target T2, Pst1 (S. pombe, UniProt Q09750 1-1522).
T2 construct: Pst1, Sin3 homolog of S. pombe, endogenous subunit of the SIN3L complex; PAH3, HID and HCR are resolved in the model; Endogenous protein, untagged in the Pst3-Flag strain; only part of it is modelled in PDB 8I03; also called Sin3 isoform Pst1; Sin3 homolog Pst1; source: endogenous, S. pombe; co-purified with Pst3-3×Flag (ANTI-FLAG M2 resin, glycerol gradient)
The experiment is described as above.

The target of experiment [3] is T3, Pst2 with C-terminal 3× Flag-tag (S. pombe, UniProt O13919 1-1075).
T3 construct: Pst2, Sin3 homolog of S. pombe, organising subunit of the SIN3S complex; all five domains (PAH1/2/3, HID, HCR) are resolved; also called Pst2-Flag; Sin3 isoform Pst2; source: endogenous locus tagged, S. pombe; purified (ANTI-FLAG M2 resin, glycerol gradient); not shown: 3× Flag, C-terminal, kept
T3 sequence (looked up): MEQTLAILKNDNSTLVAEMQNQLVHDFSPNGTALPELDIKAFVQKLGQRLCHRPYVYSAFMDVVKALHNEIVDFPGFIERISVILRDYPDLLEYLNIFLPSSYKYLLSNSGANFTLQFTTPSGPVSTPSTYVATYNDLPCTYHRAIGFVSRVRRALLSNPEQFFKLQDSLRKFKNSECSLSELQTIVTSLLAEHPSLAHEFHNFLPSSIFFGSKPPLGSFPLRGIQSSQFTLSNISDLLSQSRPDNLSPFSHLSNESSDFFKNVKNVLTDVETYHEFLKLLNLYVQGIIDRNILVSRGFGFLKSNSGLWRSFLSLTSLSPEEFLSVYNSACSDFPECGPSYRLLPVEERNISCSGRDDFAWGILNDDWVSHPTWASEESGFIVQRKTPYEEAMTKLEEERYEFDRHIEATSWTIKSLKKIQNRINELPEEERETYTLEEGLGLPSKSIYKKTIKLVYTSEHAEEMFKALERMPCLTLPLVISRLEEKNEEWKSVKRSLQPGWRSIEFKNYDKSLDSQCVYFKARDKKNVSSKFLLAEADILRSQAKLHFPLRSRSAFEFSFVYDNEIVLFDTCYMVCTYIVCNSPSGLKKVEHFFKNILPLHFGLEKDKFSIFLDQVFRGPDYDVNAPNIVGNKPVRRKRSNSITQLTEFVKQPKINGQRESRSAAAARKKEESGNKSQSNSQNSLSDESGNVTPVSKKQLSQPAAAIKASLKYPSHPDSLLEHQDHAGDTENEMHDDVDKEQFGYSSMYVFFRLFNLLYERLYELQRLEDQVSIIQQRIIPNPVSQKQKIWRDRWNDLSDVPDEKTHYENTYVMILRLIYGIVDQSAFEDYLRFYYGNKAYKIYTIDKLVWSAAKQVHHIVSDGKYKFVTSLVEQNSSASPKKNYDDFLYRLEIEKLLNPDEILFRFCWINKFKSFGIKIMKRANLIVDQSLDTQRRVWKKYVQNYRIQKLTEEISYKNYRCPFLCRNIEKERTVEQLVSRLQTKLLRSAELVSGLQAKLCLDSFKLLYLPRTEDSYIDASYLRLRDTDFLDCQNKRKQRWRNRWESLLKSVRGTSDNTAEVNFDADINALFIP
As to the kind of experiment: cryo-EM structure; endogenous SIN3S complex purified from the Pst2-3×Flag S. pombe strain, cross-linked with 1 mM BS3; 20 mM HEPES pH 7.4, 50 mM NaCl, 2 mM DTT; 2.9 Å.

T2 sequence (Q09750 whole entry, canonical isoform): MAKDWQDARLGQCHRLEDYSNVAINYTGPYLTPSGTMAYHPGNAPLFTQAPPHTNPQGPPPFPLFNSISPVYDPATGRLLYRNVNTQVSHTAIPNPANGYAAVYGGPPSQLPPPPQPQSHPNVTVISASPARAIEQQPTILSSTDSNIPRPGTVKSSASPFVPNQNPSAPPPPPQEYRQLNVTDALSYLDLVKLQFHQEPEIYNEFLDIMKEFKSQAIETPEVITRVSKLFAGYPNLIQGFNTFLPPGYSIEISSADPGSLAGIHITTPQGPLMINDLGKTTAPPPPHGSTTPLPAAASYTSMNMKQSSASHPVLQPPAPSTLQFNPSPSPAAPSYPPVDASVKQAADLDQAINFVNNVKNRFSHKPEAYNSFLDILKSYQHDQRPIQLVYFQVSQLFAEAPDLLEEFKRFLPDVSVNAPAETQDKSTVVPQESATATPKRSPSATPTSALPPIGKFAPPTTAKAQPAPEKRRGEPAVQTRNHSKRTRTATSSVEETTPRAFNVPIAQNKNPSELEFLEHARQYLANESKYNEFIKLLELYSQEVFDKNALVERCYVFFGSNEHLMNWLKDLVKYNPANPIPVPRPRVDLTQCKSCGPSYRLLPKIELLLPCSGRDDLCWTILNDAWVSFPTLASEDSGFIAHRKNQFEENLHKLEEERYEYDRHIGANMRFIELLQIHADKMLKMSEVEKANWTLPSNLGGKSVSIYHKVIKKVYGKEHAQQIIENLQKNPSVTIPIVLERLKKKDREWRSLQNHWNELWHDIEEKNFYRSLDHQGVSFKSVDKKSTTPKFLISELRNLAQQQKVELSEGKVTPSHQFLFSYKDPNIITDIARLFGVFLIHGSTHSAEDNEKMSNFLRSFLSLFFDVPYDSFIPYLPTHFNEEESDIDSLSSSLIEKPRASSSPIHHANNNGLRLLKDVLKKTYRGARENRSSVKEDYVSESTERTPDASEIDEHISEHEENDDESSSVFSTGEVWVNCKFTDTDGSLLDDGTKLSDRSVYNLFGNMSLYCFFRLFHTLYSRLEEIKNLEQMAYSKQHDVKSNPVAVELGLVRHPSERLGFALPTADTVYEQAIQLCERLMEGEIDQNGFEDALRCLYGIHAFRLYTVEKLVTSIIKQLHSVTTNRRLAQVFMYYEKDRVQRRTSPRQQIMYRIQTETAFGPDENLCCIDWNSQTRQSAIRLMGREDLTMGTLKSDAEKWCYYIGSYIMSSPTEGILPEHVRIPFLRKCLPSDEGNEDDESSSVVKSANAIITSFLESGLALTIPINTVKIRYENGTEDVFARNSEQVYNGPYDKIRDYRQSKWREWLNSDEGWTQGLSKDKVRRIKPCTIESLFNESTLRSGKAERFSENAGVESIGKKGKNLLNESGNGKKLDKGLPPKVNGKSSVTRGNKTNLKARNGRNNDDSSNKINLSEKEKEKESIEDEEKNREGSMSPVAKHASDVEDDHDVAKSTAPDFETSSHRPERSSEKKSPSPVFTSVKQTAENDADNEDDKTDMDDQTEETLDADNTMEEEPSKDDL

B1: Rxt3 (natural protein, S. pombe, UniProt O94707 1-351, looked up)
chain: MEEKTPENEQSKKTFDPKDSMKIEETSTNGSSQPSQPSNIKLSIGSILESSNDNGDPEYSENGMGNMNMNTLPMATSTPMSYTKQPSEAKYPNSVWERKGVSDQEENTSSVKRQKTLPTQSSGEEEAKYSHPGAPTATSADSISMESRPSNLSTSLSKTTSYPQFQVRQFVSPIISIDNSALEPFLNRYPASESLFPVTEYEYTPWLEFPLLYSSIGKFVRVTIDIKWLNAAINPRLCRREIWGTDVYTDDSDIATILAHCGCFSLLKPVRKIAVVDLYILPPLVHYKGTRKNQIESRSWSSRQDGISLKIKEVTWKPACASIFENSIHTLTLEERLQARLELSRSSTFKI
notes: Rxt3 of S. pombe, subunit of the Pst3 Lobe of the SIN3L complex; Endogenous protein; source: endogenous, S. pombe; co-purified with Pst3-3×Flag (ANTI-FLAG M2 resin, glycerol gradient)
In the case of B1, the binding result in experiment [1] and in experiment [2] was “binds” each time.
For the molecule B2, the binding result (with Pst1; in experiment [1]; in experiment [3]) was “binds” each time.

B3: histone deacetylase Clr6 (enzyme, S. pombe, UniProt O59702 1-405, looked up)
chain: MGFGKKKVSYFYDEDVGNYHYGPQHPMKPHRVRMVHNLVVNYNLYEKLNVITPVRATRNDMTRCHTDEYIEFLWRVTPDTMEKFQPHQLKFNVGDDCPVFDGLYEFCSISAGGSIGAAQELNSGNAEIAINWAGGLHHAKKREASGFCYVNDIALAALELLKYHQRVLYIDIDVHHGDGVEEFFYTTDRVMTCSFHKFGEYFPGTGHIKDTGIGTGKNYAVNVPLRDGIDDESYESVFKPVISHIMQWFRPEAVILQCGTDSLAGDRLGCFNLSMKGHSMCVDFVKSFNLPMICVGGGGYTVRNVARVWTYETGLLAGEELDENLPYNDYLQYYGPDYKLNVLSNNMENHNTRQYLDSITSEIIENLRNLSFAPSVQMHKTPGDFTFENAEKQNIAKEEIMDERV
notes: Clr6, zinc-dependent class I histone deacetylase of S. pombe; two copies in SIN3L (Clr6, Clr6’), one in SIN3S; Endogenous protein; source: endogenous, S. pombe; co-purified with Pst3-3×Flag or Pst2-3×Flag (ANTI-FLAG M2 resin, glycerol gradient)
For B3, the binding result (with Pst1; in experiment [1]; in experiment [3]) was “binds” throughout.
